# Measured values taken from US20200223932A1.
# What was measured:
# [1] = molecular target: recombinant human FcγRI (human) (UniProt P12314); test: ELISA, antibody coated on the plate, soluble FcγRI titrated (the axis is its concentration), anti-CD64 and HRP anti-mouse IgG, A450
# [2] = molecular target: recombinant human CD40L (BioLegend Cat. #591706) (human) (UniProt P29965); test: ELISA on coated rh CD40L; IC50 clone/IC50 5c8 x100
# Chain of UniProt P29965 (P29965 113-261 limits assumed): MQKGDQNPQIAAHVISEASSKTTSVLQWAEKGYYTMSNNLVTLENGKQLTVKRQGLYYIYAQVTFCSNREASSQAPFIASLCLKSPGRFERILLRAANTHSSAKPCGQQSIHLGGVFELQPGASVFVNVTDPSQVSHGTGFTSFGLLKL
# Chain of UniProt P12314 (P12314 16-288 limits assumed): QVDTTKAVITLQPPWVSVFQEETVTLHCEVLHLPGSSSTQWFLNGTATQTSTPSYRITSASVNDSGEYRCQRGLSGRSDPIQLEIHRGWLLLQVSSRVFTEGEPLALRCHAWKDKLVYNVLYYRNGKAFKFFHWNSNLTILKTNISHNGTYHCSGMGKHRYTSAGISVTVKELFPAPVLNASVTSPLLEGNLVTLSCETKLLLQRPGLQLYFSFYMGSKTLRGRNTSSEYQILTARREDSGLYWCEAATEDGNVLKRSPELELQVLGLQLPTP
Substance,EC50 (read off the curve) [1],Rel. Pot. [2]
anti-CD40L antibody 5c8,0.2 µg/mL,–
anti-CD40L antibody AT-1501,–,95%
